Results published in patent publication US20200399389A1 (PHANES THERAPEUTICS, published 2020).
Numbering of substitutions follows the chain as printed.

T1: human CD73 expressed on the surface of cells (human, UniProt P21589 27-549)
T1 sequence: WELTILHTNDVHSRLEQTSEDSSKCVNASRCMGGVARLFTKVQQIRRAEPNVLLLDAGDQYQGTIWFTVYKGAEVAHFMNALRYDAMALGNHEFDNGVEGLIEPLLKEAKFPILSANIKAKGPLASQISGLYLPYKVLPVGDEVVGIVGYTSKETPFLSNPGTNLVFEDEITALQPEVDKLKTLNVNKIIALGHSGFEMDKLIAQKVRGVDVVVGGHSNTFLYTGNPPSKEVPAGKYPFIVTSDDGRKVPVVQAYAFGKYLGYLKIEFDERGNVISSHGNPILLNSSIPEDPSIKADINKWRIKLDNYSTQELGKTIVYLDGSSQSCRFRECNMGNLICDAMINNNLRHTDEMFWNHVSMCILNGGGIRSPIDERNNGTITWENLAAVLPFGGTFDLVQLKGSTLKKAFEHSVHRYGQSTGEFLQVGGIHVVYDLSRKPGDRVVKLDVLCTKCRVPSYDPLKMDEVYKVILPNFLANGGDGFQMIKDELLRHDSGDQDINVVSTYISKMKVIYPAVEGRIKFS

T2: HIS-tagged human CD73 (huCD73-HIS) (human, UniProt P21589 27-547)
T2 sequence: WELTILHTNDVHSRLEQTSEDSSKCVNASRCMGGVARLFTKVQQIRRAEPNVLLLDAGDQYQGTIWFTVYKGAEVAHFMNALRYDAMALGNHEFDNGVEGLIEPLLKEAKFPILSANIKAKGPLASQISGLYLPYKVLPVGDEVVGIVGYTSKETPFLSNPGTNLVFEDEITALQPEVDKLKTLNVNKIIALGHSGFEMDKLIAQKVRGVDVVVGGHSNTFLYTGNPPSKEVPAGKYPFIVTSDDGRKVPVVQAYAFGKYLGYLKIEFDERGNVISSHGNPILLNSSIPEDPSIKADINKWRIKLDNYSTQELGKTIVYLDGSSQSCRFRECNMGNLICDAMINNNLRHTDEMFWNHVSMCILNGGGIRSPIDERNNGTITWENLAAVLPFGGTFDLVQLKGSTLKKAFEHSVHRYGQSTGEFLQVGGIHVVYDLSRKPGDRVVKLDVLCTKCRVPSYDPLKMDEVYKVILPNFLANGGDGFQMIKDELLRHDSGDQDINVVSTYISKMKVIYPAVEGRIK

B1: 60A9-H3L3 (antibody, V domains shown)
VH: EVQLVESGGGLVQPGQSLKLSCKASGYAFSSYWMNWVRQAPGKGLEWIGQIYPGDGDTYYNPSVKGRATLSADKSKNTAYLQLNNLRAEDTAVYYCAREAIYYGNYVFTYWGQGTLVTVSS
VL: DIQMTQSPSLLSASLGDRVTITCKSSQSLLNSSNQKNYLAWYQQKPGQSPKLLVYFASTRDSGVPDRFSGSGSGTDFTLTISSLEPEDFATYYCQQHYSTPLTFGGGTKLEIK
B2: 60A9-H5L4 (antibody, V domains shown)
VH: B1 VH with R38K, A40R, N61S, P62G, S63K, V64F
VL: B1 VL with Q3V, T22S, Y93F, G106A
B3: 39G8-H1L3 (antibody, V domains shown)
VH: QVQLVQSGAEVKKPGASVKVSCKASGYTFTSYWMHWVRQAPGQGLEWIGEIDPSGGYTNYAQKFQGRSTLTVDKSISTAYMELSRLRSDDTAVYYCARNYYYGSSGTMDYWGQGTLVTVSS
VL: DIVMTQSPDSLAVSLGERATMSCKSSQSLLNSSNQKNYLAWYQQKPGQPPKLLVYFASTRESGVPDRFSGSGSGTDFTLTISSLQAEDVAVYFCQQHYSTPYTFGGGTKVEIK
B4: 39G8-H3L3 (antibody, V domains shown)
VH: B3 VH with A61N
VL: B3 VL
B5: 39G8-H2L3 (antibody, V domains shown)
VH: B3 VH with K74T
VL: B3 VL

molecular target: T1, human CD73 expressed on the surface of …; experiment: cell-based or functional assay

Question: B1 was tested. Which “IC50 (nM), cell-based CD73 activity assay (A375 cells)” value (shortened to “IC50 (nM) … (A375 cells)”) did it give?
Answer: The value was 65.7 nM.

Question: How did the “IC50 (nM) … (A375 cells)” value turn out when B2 was run?
Answer: Its value is 30.1 nM.

Question: How did the “IC50 (nM) … (A375 cells)” value turn out when B3 was run?
Answer: The value was 49.6 nM.

Question: B4 was tested. Which “IC50 (nM) … (A375 cells)” value did it give?
Answer: Its value is 56.1 nM.

Question: How did the “IC50 (nM) … (A375 cells)” value turn out when B5 was run?
Answer: Its value is 66.3 nM.

molecular target: T2, HIS-tagged human CD73 (huCD73-HIS); experiment: cell-based or functional assay

Question: Which “IC50 (nM), huCD73 enzymatic assay in solution” value does the source give for B1 here?
Answer: The value was 2.09 nM.
